{"source": "the DeepSol protein solubility set"}
{"experiment": "soluble on expression in E. coli; label from the status in PepcDB or PDB records"}
{"sequence": "MYRQALASGEKIFAVAPMIDWTDTRCRFLHRQLSKRALLFTEMIVADAIIHGQREKLLGYHPQEHPVALQLGGSNPAKLAEAVRIAGDYGYDEINLNVGCPSDRVQSGTFGACLMREPEVVAQCISAMKAVAAVPVTVKCRIGVDDQEPETVLPDFLARVVAAGADAVWVHARKAWLQGLSPKENREVPPLDYDLVYRMKRDNPDVFIGINGGIADLDQAGEHLKYVDGVMLGRAAYHNTSILADVDHRIHGEEALQYDWMALRDTMMAYAADYIATGGRLNHVTRHMVGLFQGMPGARRFRQILSSDATRPGAGPEVIEAAFAAIDFNPMKELAG", "soluble on expression in E. coli": "not soluble"}
{"sequence": "NLNMAVSVTPIRDTKWLTLEVCREFQRGTCSRPDTECKFAHPSKSCQVENGRVIACFDSLKGRCSRENCKYLHPPPHLKTQLEINGRNNLIQQKNMAMLAQQMQLANAMMPGAPLQPVPMFSVAPSLATNASAAAFNPYLGPVSPSLVPAEILPTAPMLVTGNPGVPVPAAAAAAAQKLMRTDRLEVCREYQRGNCNRGENDCRFAHPADSTMIDTNDNTVTVCMDYIKGRCSREKCKYFHPPAHLQAKIKAAQYQVNQAAAAQAAATAAAMGIPQAVLPPLPKRPALEKTNGATAVFNTGIFQYQQALANMQLQQHTAFLPPVPMVHGATPATVSAATTSATSVPFAATATANQIPIISAEHLTSHKYVTQM", "soluble on expression in E. coli": "soluble"}
{"sequence": "MGSDKIHHHHHHMSVVIEFDKVSRQFVRRQNASTIQERFMGLIRGLPPAEAFWAVRDVSFAVEEGQSIGLVGHNGAGKSTILKLMTRVLEPTSGRVTTQGRIAALLELGSGFHPELSGRENVFLYGSLMGFGRKEMQRKLPEIIEFSEIGPFLDTEVKHYSSGMYTRLAFAVATAVDPDILITDEVLAVGDETFQRKCIDRIYGFRRAGKTIVFVSHALDVVRSLCDVAVWLDHGEMKAYGEAGKVVDAYLADVNERERAEFEERLHSEDDDQIRESRMRRGSREVEITRVQLLDAQGRERITFRTHEPLTIRIHYLAHQRIERPVFGVGINHESGPWLTGPNTGFDKYHIPFIEGAGIIDYHIPRLPFLGGRYLVSASATDSTQLYEFDVHDRMYPLVIHSDGLSQRYGMVFCEGNWSWHG", "soluble on expression in E. coli": "not soluble"}
{"sequence": "MTTYTFDQVEEAIEQLYPDFTINTIEISGEGNDCIAYEINGNFIFKFPKHSRASINLLNEVTVLKTIHNELSLPIPEVVFTGMPSEMCQMSFAGFTKIKGVPLTPLLLKNLPKQSQDQAAKDLARFLSELHSINISGFKSNLVLDFREKINEDNKKIKKLLSRELKGHQMKKVDDFYRDILDNEIYFKYYPCLIHNDFSSDHILFDTEKNTICGIIDFGDAAISDPDNDFISLMEDDEEYGMEFVSKILNHYKHKDIPTVLEKYMMKEKYWSFEKIIYGKEYGYMDWYEEGLNEIRSIKIK", "soluble on expression in E. coli": "soluble"}
{"sequence": "MSLERLRVAAYCRVSTDSEDQLNSYKSQVQYYTDMIKKNKEWVLADIYADEAITGTQVTKREDFQRMINDCMNGEIDMVITKSISRFARNTLDTLKYVRMLKERNIAVYFEDEKINTLTMDGELLLVVLSSVAQQEVENISANVKKGLKMKMKRGELVGFQGCLGYDYHPEDKTITVNQEEAEIVRYIFNRYVDGAGGSVIGQELENLGYKTKYGSSTWAPSTVIGIIKNEKYKGDILLGKTFTVDPISKRRLENMGEEDKFYMKDHHEPIISEEVFEKAQEILNRRNKNREGHHHHHH", "soluble on expression in E. coli": "soluble"}
{"sequence": "SALTCEVCVLTVPVVSNSTPGSLYVVATPIGNLDDMSVRALKVLREVALIAAEDTRHSARLMQHFGISTPLAACHEHNERDEGSRFITRLLAGDDVALISDAGTPLISDPGYHLVRQARAVGVPVVP", "soluble on expression in E. coli": "not soluble"}
{"sequence": "MHHHHHHLEVLFQGPSSTVTIEYFNQKKEMTKTLEEITRDFEKENPKIKVKVVNVPNAGEVLKTRVLAGDVPDVVNIYPQSIELQEWAKAGVFEDLSNKDYLKRVKNGYAEKYAVNEKVYNVPFTANAYGIYYNKDKFEELGLKVPETWDEFEQLVKDIVAKGQTPFGIAGADAWTLNGYNQLAFATATGGGKEANQYLRYSQPNAIKLSDPIMKDDIKVMDILRINGSKQKNWEGAGYTDVIGAFARGDVLMTPNGSWAITAINEQKPNFKIGTFMIPGKEKGQSLTVGAGDLAWSISATTKHPKEANAFVEYMTRPEVMQKYYDVDGSPTAIEGVKQAGEDSPLAGMTEYAFTDRHLVWLQQYWTSEADFHTLTMNYVLTGDKQGMVNDLNAFFNPMKM", "soluble on expression in E. coli": "soluble"}
